Results: patent US6348573B1, “Compositions and methods for identifying apoptosis signaling pathway inhibitors and activators” (The Regents of the University of Michigan, priority 1998, dated 2002)

B1: DFF45: 45 kDa subunit of the DNA fragmentation factor (protein, UniProt O00273 1-331, looked up)
DNA fragmentation factor …: MEVTGDAGVPESGEIRTLKPCLLRRNYSREQHGVAASCLEDLRSKACDILAIDKSLTPVTLVLAEDGTIVDDDDYFLCLPSNTKFVALASNEKWAYNNSDGGTAWISQESFDVDETDSGAGLKWKNVARQLKEDLSSIILLSEEDLQMLVDAPCSDLAQELRQSCATVQRLQHTLQQVLDQREEVRQSKQLLQLYLQALEKEGSLLSKQEESKAAFGEEVDAVDTGISRETSSDVALASHILTALREKQAPELSLSSQDLELVTKEDPKALAVALNWDIKKTETVQEACERELALRLQQTQSLHSLRSISASKASPPGDLQNPKRARQDPT
B2: CIDE-B: cell death-inducing DFF45-like effector B, mouse protein of 219 amino acids (protein, listed as Mus musculus)
chain: MEYLSAFNPNGLLRSVSTVSSELSRRVWNSAPPPQRPFRVCDHKRTVRKGLTAASLQELLDKVLETLLLRGVLTLVLEEDGTAVDSEDFFQLLEDDTCLMVLEQGQSWSPKSGMLSYGLGREKPKHSKDIARITFDVYKQNPRDLFGSLNVKATFYGLYSMSCDFQGVGPKRVLRELLRGTSSQLQGLGHMLLGISSTLRHVVEGADRWQWHGQRHLHS

What was measured:
[1] = test system: 293T cells; assay: Apoptosis assay, CIDE transfection; assay type: cell-based, human; settings: 293T cells
Procedure: Apoptosis Assays, fluorescence staining of nuclear DNA and DNA fragmentation assay: 5×10^5 293T cells were co-transfected with 0.2 μg of pcDNA3-β-gal plus each expression plasmid in triplicate by the calcium phosphate method as reported [N. Inohara et al, “CLARP, a death effector domain-containing protein interacts with caspase-8 and regulates apoptosis,” Proc. Natl. Acad. Sci. USA 94:10717-10722 (1997a)].
MCF7 were cotransfected with vector control or CIDE-A and β-galactosidase-expressing reporter construct by Lipofectamine (Gibco BRL) according to the manufacturer's instructions. In some experiments, 20 μM zVAD-fmk (benzyloxycarbonyl-Val-Ala-Asp-(OMe)-fluoromethylketone), zFA-fmk (benzyloxycarbonyl-Phe-Ala-(OMc)-fluoromethylketone) and zDEVD-fmk (benzyloxycarbonyl-Asp-Glu-Val-Asp-(OMe)-fluoromethylketone) were added into medium at 8 hr after transfection. zFA-fmk, zVAD-fmk and zDEVD-fmk were obtained from Enzyme Systems. At 24 hours after transfection, cells were fixed, stained for β-galactosidase as described [N. Inohara et al., “CLARP, a death effector domain-containing protein interacts with caspase-8 and regulates apoptosis,” Proc. Natl. Acad. Sci. USA 94:10717-10722 (1997a)] and assayed for morphological features of apoptosis. At least 300 hundred blue-staining cells were counted. Statistical significance was determined by one-way ANOVA followed by Student-Neuman-Keuls post-doc comparisons.
(§1) Nuclear staining with acridine-orange was performed as described [N. Inohara et al., “harakiri, a novel regulator of cell death, encodes a protein that activates apoptosis and interacts selectively with survival-promoting proteins Bcl-2 and Bcl-XL.,” EMBO J. 16:1686-1694 (1997b)]. Genomic DNA was extracted and analyzed for DNA fragmentation as described [X. Liu et al., “Apaf-1, a human protein homologous to C. elegans CED-4, participates in cytochrome c-dependent activation of caspase-3,” Cell 90:405-413 (1997)].

[2] = test system: 293T cells; assay: DNA fragmentation assay; assay type: cell-based, human; settings: co-expression
Procedure: as §1

[3] = test system: SHEP cells; assay: Apoptosis in SHEP cells; assay type: cell-based; settings: data not shown

Molecule | induction of apoptosis (killing) of 293T cells by expression [1] | apoptosis induced by CLARP ([1]; co-expression) | apoptosis induced by Fas ([1]; co-expression) | apoptosis of the CIDE-A (108-199) mutant ([1]; co-expression) | killing activity of CIDE-A ([1]; co-expression) | killing activity of CIDE-B ([1]; co-expression) | DNA fragmentation induced by CIDE-A [2] | induction of apoptosis in SHEP cells [3]
B1 | did not induce apoptosis | inhibited | inhibited | not inhibited | inhibited significantly | inhibited significantly | inhibited | 
B2 | induced significant killing of 293T cells in a dose dependent manner |  |  |  |  |  |  | induced apoptosis
